From patent US20200071775A1 come the findings set out here.

This assay concerns the target potato virus Y (PVY). The assay can be described thus: sandwich ELISA, PVY captured by PVY capture antibody (Agdia), phage at 3 µg/ml, anti-M13 HRP detection.

“M13KO7 bacteriophage (from UniProt P69168 19-424; P69530 1-112; P69541 24-73)”: the improved sensitivity compared to the existing antibody (PVY detection antibody, Agdia) was 25%.
